Test results from the supplement of paper PMC9112550, “Optimization of the antimicrobial peptide Bac7 by deep mutational scanning” (BMC Biology, 2022).
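Also: peptides expressed intracellularly from a pBAD plasmid library in pooled LB shake-flask culture, induced with 0.3% L-arabinose, DNA abundance read by NGS, three biological replicates, DESeq2 with apeglm shrinkage.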

What follows are sequences tested on Escherichia coli TOP10 (assay: shrunken log2 fold change of peptide-encoding DNA abundance (4.5 h post-induction vs induction); higher = less antimicrobial activity (less host growth inhibition)). Conditions: time post-induction: 4.5 h; library: site-saturation at positions 5, 18, 19, 20.
With RRIRTRPPRLPRPRPRPIMTPRP the “shrunken log2 fold change” value was -0.0418.
With RRIRTRPPRLPRPRPRPIQNPRP the “shrunken log2 fold change” value was -0.147.
With RRIRTRPPRLPRPRPRPIRGPRP the “shrunken log2 fold change” value was 0.074.
RRIRTRPPRLPRPRPRPIRMPRP was tested, and the “shrunken log2 fold change” value was -0.441.
For RRIRTRPPRLPRPRPRPISWPRP, the “shrunken log2 fold change” value was -0.0406.
For RRIRTRPPRLPRPRPRPIVCPRP, the “shrunken log2 fold change” value was -0.246.
For RRIRTRPPRLPRPRPRPIVIPRP, the “shrunken log2 fold change” value was -0.054.
RRIRTRPPRLPRPRPRPIVSPRP was tested, and the “shrunken log2 fold change” value was -0.0631.
With RRIRTRPPRLPRPRPRPIYYPRP the “shrunken log2 fold change” value was -0.818.
In the case of RRIRTRPPRLPRPRPRPKDLPRP, the “shrunken log2 fold change” value is reported as 0.0246.
RRIRTRPPRLPRPRPRPKEFPRP was tested, and the “shrunken log2 fold change” value was -0.0177.
With RRIRTRPPRLPRPRPRPKFIPRP the “shrunken log2 fold change” value was -0.175.
RRIRTRPPRLPRPRPRPKIFPRP was tested, and the “shrunken log2 fold change” value was -0.219.
In the case of RRIRTRPPRLPRPRPRPKLDPRP, the “shrunken log2 fold change” value is reported as 0.2.
RRIRTRPPRLPRPRPRPKMCPRP was tested, and the “shrunken log2 fold change” value was 0.15.
With RRIRTRPPRLPRPRPRPKMTPRP the “shrunken log2 fold change” value was 0.214.
With RRIRTRPPRLPRPRPRPKNNPRP the “shrunken log2 fold change” value was -0.483.
In the case of RRIRTRPPRLPRPRPRPKNQPRP, the “shrunken log2 fold change” value is reported as -0.274.
For RRIRTRPPRLPRPRPRPKPCPRP, the “shrunken log2 fold change” value was -0.126.
RRIRTRPPRLPRPRPRPKPDPRP was tested, and the “shrunken log2 fold change” value was 0.214.
RRIRTRPPRLPRPRPRPKPYPRP was tested, and the “shrunken log2 fold change” value was -0.607.
In the case of RRIRTRPPRLPRPRPRPKVIPRP, the “shrunken log2 fold change” value is reported as -0.503.
For RRIRTRPPRLPRPRPRPKVKPRP, the “shrunken log2 fold change” value was 0.00985.
For RRIRTRPPRLPRPRPRPKVTPRP, the “shrunken log2 fold change” value was -0.026.
RRIRTRPPRLPRPRPRPKWAPRP was tested, and the “shrunken log2 fold change” value was 0.0541.
RRIRTRPPRLPRPRPRPKWVPRP was tested, and the “shrunken log2 fold change” value was 0.129.
In the case of RRIRTRPPRLPRPRPRPKWYPRP, the “shrunken log2 fold change” value is reported as -0.468.
RRIRTRPPRLPRPRPRPKYSPRP was tested, and the “shrunken log2 fold change” value was -0.413.
With RRIRTRPPRLPRPRPRPLAGPRP the “shrunken log2 fold change” value was 0.0232.
In the case of RRIRTRPPRLPRPRPRPLCFPRP, the “shrunken log2 fold change” value is reported as -0.326.
For RRIRTRPPRLPRPRPRPLCGPRP, the “shrunken log2 fold change” value was 0.0512.
In the case of RRIRTRPPRLPRPRPRPLCLPRP, the “shrunken log2 fold change” value is reported as -0.433.
In the case of RRIRTRPPRLPRPRPRPLCTPRP, the “shrunken log2 fold change” value is reported as -0.106.
For RRIRTRPPRLPRPRPRPLEAPRP, the “shrunken log2 fold change” value was 0.115.
With RRIRTRPPRLPRPRPRPLFTPRP the “shrunken log2 fold change” value was -0.352.
With RRIRTRPPRLPRPRPRPLGEPRP the “shrunken log2 fold change” value was 0.0248.
RRIRTRPPRLPRPRPRPLGMPRP was tested, and the “shrunken log2 fold change” value was 0.257.
For RRIRTRPPRLPRPRPRPLHAPRP, the “shrunken log2 fold change” value was 0.143.
RRIRTRPPRLPRPRPRPLIHPRP was tested, and the “shrunken log2 fold change” value was -0.552.
With RRIRTRPPRLPRPRPRPLKGPRP the “shrunken log2 fold change” value was -0.377.
In the case of RRIRTRPPRLPRPRPRPLLEPRP, the “shrunken log2 fold change” value is reported as 0.024.
In the case of RRIRTRPPRLPRPRPRPLLTPRP, the “shrunken log2 fold change” value is reported as -0.0897.
In the case of RRIRTRPPRLPRPRPRPLMCPRP, the “shrunken log2 fold change” value is reported as -0.151.
RRIRTRPPRLPRPRPRPLMFPRP was tested, and the “shrunken log2 fold change” value was -0.516.
For RRIRTRPPRLPRPRPRPLMNPRP, the “shrunken log2 fold change” value was -0.852.
RRIRTRPPRLPRPRPRPLNFPRP was tested, and the “shrunken log2 fold change” value was -0.446.
With RRIRTRPPRLPRPRPRPLNIPRP the “shrunken log2 fold change” value was -0.36.
In the case of RRIRTRPPRLPRPRPRPLNQPRP, the “shrunken log2 fold change” value is reported as -0.417.
For RRIRTRPPRLPRPRPRPLPYPRP, the “shrunken log2 fold change” value was -0.0545.
With RRIRTRPPRLPRPRPRPLRFPRP the “shrunken log2 fold change” value was 0.742.
RRIRTRPPRLPRPRPRPLSEPRP was tested, and the “shrunken log2 fold change” value was -0.127.
For RRIRTRPPRLPRPRPRPLSKPRP, the “shrunken log2 fold change” value was -0.22.
RRIRTRPPRLPRPRPRPLSNPRP was tested, and the “shrunken log2 fold change” value was 0.012.
RRIRTRPPRLPRPRPRPLSRPRP was tested, and the “shrunken log2 fold change” value was -0.45.
For RRIRTRPPRLPRPRPRPLSYPRP, the “shrunken log2 fold change” value was -0.155.
In the case of RRIRTRPPRLPRPRPRPLVPPRP, the “shrunken log2 fold change” value is reported as 0.193.
For RRIRTRPPRLPRPRPRPLVRPRP, the “shrunken log2 fold change” value was 0.114.
In the case of RRIRTRPPRLPRPRPRPMCVPRP, the “shrunken log2 fold change” value is reported as 0.103.
RRIRTRPPRLPRPRPRPMCYPRP was tested, and the “shrunken log2 fold change” value was -0.252.
For RRIRTRPPRLPRPRPRPMDPPRP, the “shrunken log2 fold change” value was -0.107.
With RRIRTRPPRLPRPRPRPMEQPRP the “shrunken log2 fold change” value was -0.189.
For RRIRTRPPRLPRPRPRPMFEPRP, the “shrunken log2 fold change” value was -0.171.
For RRIRTRPPRLPRPRPRPMGLPRP, the “shrunken log2 fold change” value was 0.12.
RRIRTRPPRLPRPRPRPMHMPRP was tested, and the “shrunken log2 fold change” value was -0.202.
For RRIRTRPPRLPRPRPRPMIKPRP, the “shrunken log2 fold change” value was -0.103.
In the case of RRIRTRPPRLPRPRPRPMIPPRP, the “shrunken log2 fold change” value is reported as -0.12.
With RRIRTRPPRLPRPRPRPMISPRP the “shrunken log2 fold change” value was -0.0443.
RRIRTRPPRLPRPRPRPMITPRP was tested, and the “shrunken log2 fold change” value was -0.0731.
For RRIRTRPPRLPRPRPRPMKRPRP, the “shrunken log2 fold change” value was 0.298.
For RRIRTRPPRLPRPRPRPMLCPRP, the “shrunken log2 fold change” value was -0.00838.
With RRIRTRPPRLPRPRPRPMLEPRP the “shrunken log2 fold change” value was 0.018.
In the case of RRIRTRPPRLPRPRPRPMMEPRP, the “shrunken log2 fold change” value is reported as -0.202.
RRIRTRPPRLPRPRPRPMNDPRP was tested, and the “shrunken log2 fold change” value was -0.0997.
RRIRTRPPRLPRPRPRPMNMPRP was tested, and the “shrunken log2 fold change” value was -0.24.
In the case of RRIRTRPPRLPRPRPRPMPFPRP, the “shrunken log2 fold change” value is reported as -0.00604.
In the case of RRIRTRPPRLPRPRPRPMPQPRP, the “shrunken log2 fold change” value is reported as -0.134.
For RRIRTRPPRLPRPRPRPMQDPRP, the “shrunken log2 fold change” value was 0.118.
For RRIRTRPPRLPRPRPRPMRCPRP, the “shrunken log2 fold change” value was -0.117.
With RRIRTRPPRLPRPRPRPMSWPRP the “shrunken log2 fold change” value was 0.0201.
For RRIRTRPPRLPRPRPRPMTAPRP, the “shrunken log2 fold change” value was 0.154.
RRIRTRPPRLPRPRPRPMVYPRP was tested, and the “shrunken log2 fold change” value was -0.09.
RRIRTRPPRLPRPRPRPMWMPRP was tested, and the “shrunken log2 fold change” value was -0.177.
RRIRTRPPRLPRPRPRPMWRPRP was tested, and the “shrunken log2 fold change” value was -0.0938.
RRIRTRPPRLPRPRPRPMYKPRP was tested, and the “shrunken log2 fold change” value was -0.0126.
RRIRTRPPRLPRPRPRPNALPRP was tested, and the “shrunken log2 fold change” value was -0.0225.
For RRIRTRPPRLPRPRPRPNAYPRP, the “shrunken log2 fold change” value was -0.195.
In the case of RRIRTRPPRLPRPRPRPNCKPRP, the “shrunken log2 fold change” value is reported as -0.218.
For RRIRTRPPRLPRPRPRPNCYPRP, the “shrunken log2 fold change” value was -0.836.
With RRIRTRPPRLPRPRPRPNEGPRP the “shrunken log2 fold change” value was -0.191.
In the case of RRIRTRPPRLPRPRPRPNEYPRP, the “shrunken log2 fold change” value is reported as -0.22.
In the case of RRIRTRPPRLPRPRPRPNFEPRP, the “shrunken log2 fold change” value is reported as -0.101.
With RRIRTRPPRLPRPRPRPNFTPRP the “shrunken log2 fold change” value was -0.0395.
In the case of RRIRTRPPRLPRPRPRPNGEPRP, the “shrunken log2 fold change” value is reported as -0.12.
For RRIRTRPPRLPRPRPRPNGGPRP, the “shrunken log2 fold change” value was 0.033.
For RRIRTRPPRLPRPRPRPNGSPRP, the “shrunken log2 fold change” value was -0.198.
For RRIRTRPPRLPRPRPRPNGWPRP, the “shrunken log2 fold change” value was 0.215.
For RRIRTRPPRLPRPRPRPNICPRP, the “shrunken log2 fold change” value was 0.00449.
RRIRTRPPRLPRPRPRPNIDPRP was tested, and the “shrunken log2 fold change” value was -0.32.
With RRIRTRPPRLPRPRPRPNKIPRP the “shrunken log2 fold change” value was -0.799.
RRIRTRPPRLPRPRPRPNLGPRP was tested, and the “shrunken log2 fold change” value was 0.152.
For RRIRTRPPRLPRPRPRPNNGPRP, the “shrunken log2 fold change” value was -0.602.
In the case of RRIRTRPPRLPRPRPRPNPWPRP, the “shrunken log2 fold change” value is reported as 0.0694.
With RRIRTRPPRLPRPRPRPNQDPRP the “shrunken log2 fold change” value was -0.308.
RRIRTRPPRLPRPRPRPNQEPRP was tested, and the “shrunken log2 fold change” value was 0.0313.
With RRIRTRPPRLPRPRPRPNQSPRP the “shrunken log2 fold change” value was -0.187.
RRIRTRPPRLPRPRPRPNQTPRP was tested, and the “shrunken log2 fold change” value was -0.155.
RRIRTRPPRLPRPRPRPNSWPRP was tested, and the “shrunken log2 fold change” value was -0.413.
In the case of RRIRTRPPRLPRPRPRPNTVPRP, the “shrunken log2 fold change” value is reported as -0.305.
RRIRTRPPRLPRPRPRPNVPPRP was tested, and the “shrunken log2 fold change” value was -0.0447.
